In patent publication US20230057263A1:

T1: (H2N-…-OH) vCD3e #p3-BSA
T1 sequence (peptide, conjugated to BSA): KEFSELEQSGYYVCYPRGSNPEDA

T2: (H2N-…-OH) vCD3e #p2-BSA
T2 sequence (peptide, conjugated to BSA): CPQYPGSEILWQHNDK


Legend:
[1] = molecular target: cynomolgus CD3-epsilon (cynomolgus) (UniProt Q95LI5); assay: Luminex bead assay, 1 ug/ml antibody; recombinant cyno CD3 (sinobiologicals) on beads [Cont.]
[2] = molecular target: cynomolgus CD3-epsilon (cynomolgus) (UniProt Q95LI5); assay: flow cytometry on cynomolgus T cells
[3] = molecular target: human CD3 epsilon (CD3ε) (human) (UniProt P07766); assay: flow cytometry on human T cells
[4] = molecular target: BSA alone (bovine) (UniProt P02769); assay: Luminex bead assay, 1 ug/ml antibody [Cont.]
BSA alone (bovine), sequence (P02769 25-607 limits assumed): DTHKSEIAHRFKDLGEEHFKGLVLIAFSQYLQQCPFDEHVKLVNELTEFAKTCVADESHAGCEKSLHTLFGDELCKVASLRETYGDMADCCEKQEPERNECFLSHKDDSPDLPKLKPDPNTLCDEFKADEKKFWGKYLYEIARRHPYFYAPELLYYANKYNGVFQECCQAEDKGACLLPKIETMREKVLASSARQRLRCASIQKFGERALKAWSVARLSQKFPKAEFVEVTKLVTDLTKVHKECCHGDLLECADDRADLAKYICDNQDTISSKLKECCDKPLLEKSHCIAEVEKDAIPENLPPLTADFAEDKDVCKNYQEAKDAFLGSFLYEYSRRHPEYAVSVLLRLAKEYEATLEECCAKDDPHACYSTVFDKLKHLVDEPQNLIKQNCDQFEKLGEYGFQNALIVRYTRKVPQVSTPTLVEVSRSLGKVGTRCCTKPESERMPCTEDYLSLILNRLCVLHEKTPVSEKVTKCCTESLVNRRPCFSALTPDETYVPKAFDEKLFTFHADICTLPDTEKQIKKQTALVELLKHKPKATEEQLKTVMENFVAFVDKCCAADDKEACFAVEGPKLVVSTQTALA

[5] = molecular target: biotinylated 15-mer peptide corresponding to the CD3ε N-terminus (human) (UniProt P07766); assay: Luminex bead assay, 1 ug/ml antibody [Cont.]
[6] = molecular target: T1, (H2N-…-OH) vCD3e #p3-BSA; assay: Luminex bead assay, 1 ug/ml antibody [Cont.]
[7] = molecular target: T2, (H2N-…-OH) vCD3e #p2-BSA; assay: Luminex bead assay, 1 ug/ml antibody [Cont.]
[8] = molecular target: vCD3e #p1 peptide; assay: Luminex bead assay, 1 ug/ml antibody [Cont.]
[9] = molecular target: huCD3d/eCHO-E DT1331 (human) (UniProt P04234); assay: Luminex bead assay, 1 ug/ml antibody [Cont.]
huCD3d/eCHO-E DT1331 (human), sequence (P04234 22-105): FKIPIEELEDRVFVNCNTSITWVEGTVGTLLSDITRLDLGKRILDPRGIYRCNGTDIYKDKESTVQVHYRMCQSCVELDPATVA

cynomolgus CD3-epsilon (cynomolgus), sequence (Q95LI5 22-198): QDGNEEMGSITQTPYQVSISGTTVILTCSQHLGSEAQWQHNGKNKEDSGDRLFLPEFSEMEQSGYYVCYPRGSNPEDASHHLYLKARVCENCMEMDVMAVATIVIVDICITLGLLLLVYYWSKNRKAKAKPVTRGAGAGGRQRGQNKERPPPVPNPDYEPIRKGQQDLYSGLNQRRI

Binder | Luminex signal [1] | EC50 (read off the curve) [2] | EC50 (read off the curve) [3] | Luminex signal [4] | Luminex signal [5] | Luminex signal [6] | Luminex signal [7] | Luminex signal [8] | Luminex signal [9]
SP34-2 (antibody, from a related filing, V domains shown) VH: EVQLVESGGGLVQPKGSLKLSCAASGFTFNTYAMNWVRQAPGKGLEWVARIRSKYNNYATYYADSVKDRFTISRDDSQSILYLQMNNLKTEDTAMYYCVRHGNFGNSYVSWFAYWGQGTLVTVSA VL: QAVVTQESALTTSPGETVTLTCRSSTGAVTTSNYANWVQEKPDHLFTGLIGGTNKRAPGVPARFSGSLIGDKAALTITGAQTEDEAIYFCALWYSNLWVFGGGTKLTVL | 17200 | 0.3 nM | 0.2 nM | 398 | 6.5 | 439 | 184 | 17900 | 22100
6d59 (antibody, V domains shown) VH: QVHLVESGGGVVQPGRSLRLSCAASGFKFRSYGMHWVRQAPGKGLEWVAIIWYDGSKRYYADSVKGRFTISRDNSKNTLYLQMSSLRAEDTAVYYCARDLITGTTDYWGQGTLVTVSS VL: DVVMTQSPLSLPVTLGQPASISCRSSRSLVYSDGNTHLIWFQQRPGQSPRRLIYRVSNRVSGVPDRFSGSGSGTDFTLKISRVEAEDVGVYYCLQGAHWPYTFGQGTKLEIKR | – | – | – | – | – | – | 238 | – | –
